Experimental data: patent US6956104B2, “Protein Rim2” (JCR Pharmaceuticals Co., Ltd., priority 1999, dated 2005)
Substitutions are numbered along the chain they refer to. Names and notes keep the numbering of the source.

Experiments:
PC12 cells = assay: GH secretion from transfected PC12 cells; type: cell-based; conditions: for 8-Br-cAMP-induced, Ca2+-dependent GH secretion: 8-Br-cAMP 1 mM, GH released relative to total cellular GH, n=9; for forskolin-induced GH secretion relative to wild-type cAMP-GEFII: high K+, 15-min incubation, increment above basal, wild-type = 100%
Protocol: GH secretion from transfected PC12 cells was performed as described in K. Korake et al., J. Biol. Chem., 272:29407(1997). Expression plasmid vectors (pSR α) for wild-type cAMP-GEFII, mutant cAMP-GEFII (T810A), and the double mutant cAMP-GEFII (G114E, G422D) were prepared. As a control, β-galactosidase (β-gal) was used. […] were transfected with GH expression vector (pXGH5: Nichols Institute) plus each vector described above, using LipofectAMINE.
PC12 cell were incubated with a low […] (4.7 mM) or high K^+ (60 mM) solution, in the presence or absence of forskolin (50 μM) or 8-bromoadenosine 3′,5′ cyclic monophosphate (8-Br-cAMP)(1 mM). Forskolin or 8-Br-cAMP was added 10 min before the incubation with a low or high K^+ solution. In some experiments, the PKA inhibitor H-89 (10 μM) was added 10 min before forskolin stimulation.

Rab3A = assay: In vitro binding of Rab3A to immobilized GST-Rim; conditions: immobilized on glutathione beads; anti-Rab3A immunoblotting
Protocol: Lipid-modified Rab3A was purified from the membrane fraction of Sf9 cells expressing Rab3A. Rat Rim1 (amino acid residues 1-204) and mouse Rim2 (amino acid residues 1-345) were expressed as GST fusion proteins and purified. The GTP γS- or GDP βS-bound form of Rab3A was incubated for 90 min at 4° C. with GST-Rim1, or GST-Rim2 (30 pmol for each) immobilized on glutathione beads in reaction buffer. Rab3A was detected by immunoblotting with anti-Rab3A antibody.

cAMP-GEFII = target: T1, cAMP-GEFII (Mus musculus, UniProt Q9EQZ6); assay: GST pull-down, interaction of Rim with cAMP-GEFII; type: binding; conditions: lysates of COS-1 or MIN6 cells, or mouse brain homogenate; immunoblotting
T1 construct: A full-length cAMP-GEFII cDNA was subcloned into plasmid pFLAG-CMV-2 (Sigma); expressed in transfected cells; host or cells: COS-1 cells
T1 sequence (Q9EQZ6 1-1011): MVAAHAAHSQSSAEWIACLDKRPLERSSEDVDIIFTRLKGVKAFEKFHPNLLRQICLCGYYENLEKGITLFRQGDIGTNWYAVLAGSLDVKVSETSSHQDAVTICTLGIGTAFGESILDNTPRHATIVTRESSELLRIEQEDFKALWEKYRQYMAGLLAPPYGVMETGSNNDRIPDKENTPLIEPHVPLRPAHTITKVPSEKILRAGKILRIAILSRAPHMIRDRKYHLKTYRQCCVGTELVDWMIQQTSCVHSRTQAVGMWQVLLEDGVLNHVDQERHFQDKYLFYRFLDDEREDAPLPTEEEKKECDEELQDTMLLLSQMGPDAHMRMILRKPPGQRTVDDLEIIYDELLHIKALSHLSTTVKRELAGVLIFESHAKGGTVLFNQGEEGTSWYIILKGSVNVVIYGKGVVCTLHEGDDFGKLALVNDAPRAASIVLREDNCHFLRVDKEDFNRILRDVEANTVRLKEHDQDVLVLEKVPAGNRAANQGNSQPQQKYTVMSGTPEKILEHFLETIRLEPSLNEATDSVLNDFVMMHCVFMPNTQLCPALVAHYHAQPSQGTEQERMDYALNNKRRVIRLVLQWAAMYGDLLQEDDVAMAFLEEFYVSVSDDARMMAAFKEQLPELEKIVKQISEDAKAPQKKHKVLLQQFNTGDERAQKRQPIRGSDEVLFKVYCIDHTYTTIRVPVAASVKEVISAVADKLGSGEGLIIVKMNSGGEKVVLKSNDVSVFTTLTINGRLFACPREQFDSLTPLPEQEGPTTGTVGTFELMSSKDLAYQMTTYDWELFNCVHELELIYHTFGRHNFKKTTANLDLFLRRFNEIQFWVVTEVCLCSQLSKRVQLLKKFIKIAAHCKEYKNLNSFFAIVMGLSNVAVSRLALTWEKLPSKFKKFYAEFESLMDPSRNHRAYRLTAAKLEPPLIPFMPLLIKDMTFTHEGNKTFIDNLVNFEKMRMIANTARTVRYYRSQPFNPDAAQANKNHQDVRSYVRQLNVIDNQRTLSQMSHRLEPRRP
Protocol: Rim2 (amino acid residues 538-863) was expressed as a GST fusion protein and purified according to the method described in “Preparation and Test of GST fusion Protein”. A full-length cAMP-GEFII cDNA was subcloned into plasmid pFLAG-CMV-2 (Sigma). The resultant construct was transfected into COS-1 cells, using LipofectAMINE (Life Technologies). The lysate of the COS-1 cells was incubated with GST-Rim2 immobilized on glutathione beads for 2 hrs at 4° C. The complex thus obtained was washed with distilled water, separated by SDS-PAGE, and immunoblotted with an anti-FLAG M2 antibody (Sigma).
The lysate of MIN6 cells was incubated with GST-Rim2 and interaction between cAMP-GEFII and Rim2 was evaluated according to the method described in “Study on Interaction between Rim2 and cAMP-GEFII: I”, using a IgG antibody raised against the C-terminus (amino acid residues 1001-1011, […] (SEQ ID NO:5) of mouse cAMP-GEFII.
According to the method described in “Preparation and Test of GST fusion Protein”, Rim1 partial sequence (530-806) was expressed as a GST fusion protein and then purified. The brain homogenate from three mice was incubated with GST-Rim1 immobilized on glutathione beads overnight at 4° C. cAMP-GEFII was detected as described in “Study on Interaction between Rim2 and cAMP-GEFII: II”.

[1] = target: T2, constitutively active Rab3A (Q81L) (Bos taurus, UniProt P11023, Q81L); assay: Yeast two-hybrid assay with Rab3A; type: binding, bovine; conditions: transactivation of liquid β-galactosidase activity
T2 construct: the full-length cDNA's for wild type mouse Rab3A and constitutively active bovine Rab3A (Q81L) were cloned into the yeast bait vector pBTM116; expressed in transfected cells
T2 sequence (P11023 1-220 Q81L): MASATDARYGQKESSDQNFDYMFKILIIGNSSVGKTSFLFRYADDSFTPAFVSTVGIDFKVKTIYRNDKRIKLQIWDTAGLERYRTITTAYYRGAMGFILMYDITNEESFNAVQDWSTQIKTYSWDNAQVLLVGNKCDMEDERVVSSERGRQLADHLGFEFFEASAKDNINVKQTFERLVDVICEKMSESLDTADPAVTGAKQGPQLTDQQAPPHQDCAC
Text: According to the method described in “Identification of Interacting molecules by YTH Method”, the full-length cDNA's for wild type mouse Rab3A and constitutively active bovine Rab3A (Q81L) were cloned into the yeast bait vector pBTM116.
The nucleotide sequence of zinc finger domains of bovine rabphilin3 (amino acid residues 1-283), rat Rim1 (amino acid residues 1-204) and mouse Rim2 (amino acid residues 1-345 were cloned into the prey vector pVP16. Liquid culture assay of […] activities was performed according to the manufacturer's instructions (Clontech). The activity values were obtained from 3 independent clones for each transformant and normalized by cell numbers determined as OD600.

In the case of `Nc1ncnc2c1nc(Br)n2[C@@H]1O[C@@H]2COP(=O)(O)O[C@H]2[C@H]1O` [8-Br-cAMP, 8-bromoadenosine 3′,5′ cyclic monophosphate, reference compound], the “8-Br-cAMP-induced, Ca2+-dependent GH secretion” value (PC12 cells; cAMP-GEFII-transfectant) is reported as 34.9±1.3% and the “8-Br-cAMP-induced, Ca2+-dependent GH secretion” value (PC12 cells; control (β-galactosidase-transfectant)) is reported as 25.1±1.8%.

With `O=S(=O)(NCCNC/C=C/c1ccc(Br)cc1)c1cccc2cnccc12` [H-89, reference compound] the “effect on high K+-induced GH secretion” value (PC12 cells; H-89 10 μM, cAMP-GEFII-transfected and β-galactosidase-transfected PC12 cells) was “reduced”.

B1: Rim1: Rab3-interacting molecule, putative effector of the small G protein Rab3; rat, used as GST fusion (protein)
chain: MSSAVGPRGPRPPTVPPPMQELPDLSHLTEEERNIIMAVMDRQKEEEEKEEAMLKCVVRDMAKPAACKTPRNAESQPHQPPLNIFRCVCVPRKPSSEEGGPERDWRLHQQFESYKEQVRKIGEEARRYQGEHKDDAPTCGICHKTKFADGCGHLCSYCRTKFCARCGGRVSLRSNNEDKVVMWVCNLCRKQQEILTKSGAWFFG
modifications: left off: large carriers
notes: rat, used as GST fusion
In the case of B1, the “binding to GTPγS- or GDP-bound form of Rab3A” value (Rab3A) is reported as “binds to the GTP-activated form”, the “interaction with cAMP-GEFII protein” value (cAMP-GEFII) is reported as “bound” and the “interaction with active Rab3A (Q81L)” value [1] is reported as “interacts”.

B2: cAMP-GEFII: cAMP sensor protein, GDP/GTP exchange factor II; wild type transfected into PC12 cells (protein)
chain: T1 sequence (Q9EQZ6 1-1011)
modifications: left off: large carriers
notes: cAMP sensor protein, GDP/GTP exchange factor II; wild type transfected into PC12 cells
In the case of B2, the “forskolin-induced, Ca2+-dependent GH secretion with PKA inhibitor H-89, versus control cells” value (PC12 cells; H-89 10 μM, forskolin 50 μM) is reported as “significantly higher”, the “effect on Ca2+-dependent (60 mM K+) secretion of cotransfected GH” value (PC12 cells; compared to the control transfectant) is reported as “did not alter” and the “effect on forskolin-induced, Ca2+-dependent GH secretion” value (PC12 cells; forskolin 50 μM) is reported as “significantly enhanced”.

B3: cAMP-GEFII (T810A): mutant cAMP-GEFII in which a potential PKA phosphorylation site is disrupted (protein, UniProt Q9EQZ6 1-1011, looked up, variant T810A)
Rap guanine nucleotide …: T1 sequence (Q9EQZ6 1-1011) with T810A
With B3 the “forskolin-induced GH secretion relative to wild-type cAMP-GEFII” value (PC12 cells; forskolin 50 μM) was “not affected”.

B4: cAMP-GEFII (G114E, G422D): double mutant cAMP-GEFII in which both cAMP binding sites are disrupted (protein, UniProt Q9EQZ6 1-1011, looked up, variant G114E G422D)
Rap guanine nucleotide …: T1 sequence (Q9EQZ6 1-1011) with G114E, G422D
B4 was tested, and the “forskolin-induced GH secretion relative to wild-type cAMP-GEFII” value (PC12 cells; forskolin 50 μM) was ~40%.
